Data set [1] deals with the molecule itself. In words: SAXS; ESRF BM29, SEC buffer (150 mM NaCl, 20 mM HEPES pH 7.5), 20 °C (277 K for deglycosylated MAG1–5 N406Q), single concentration of 33-52 μM for each sample; monomer to dimer.
Data set [2] concerns the molecule itself. In words: AUC; sedimentation equilibrium, SEC buffer (150 mM NaCl, 20 mM HEPES pH 7.5), 20 °C, 7,500, 14,000 and 20,000 r.p.m., global analysis of several concentrations, speeds and wavelengths; monomer to dimer.
Data set [3] concerns the molecule itself. Kind of data set: SEC; Superdex200 Hiload 16/60, 150 mM NaCl, 20 mM HEPES pH 7.5. A general note: Size exclusion chromatography separates by hydrodynamic size, large species first.
The next data set is described as follows: SAXS. Conditions: glycan lost; control: glycosylated wt MAG1–5.
A short description of data set [4]: size exclusion chromatography. The note with it: glycan lost; control: wt and other MAG constructs.
The nature of data set [5]: sedimentation equilibrium AUC, monomer-dimer fit. The note with it: glycan lost; control: glycosylated wt MAG1–5.

This is an account of results in paper PMC5150538, “Structural basis of myelin-associated glycoprotein adhesion and signalling” (Nature Communications, 2016).

Where a chain is given by its changes, count along the chain named. Names and notes keep the numbering of the source.

B1: MAG1–5 wt glycosylated (full extracellular segment of mouse myelin-associated glycoprotein) (domain or fragment, UniProt P20917 20-508, looked up)
chain: GHWGAWMPSTISAFEGTCVSIPCRFDFPDELRPAVVHGVWYFNSPYPKNYPPVVFKSRTQVVHESFQGRSRLLGDLGLRNCTLLLSTLSPELGGKYYFRGDLGGYNQYTFSEHSVLDIVNTPNIVVPPEVVAGTEVEVSCMVPDNCPELRPELSWLGHEGLGEPTVLGRLREDEGTWVQVSLLHFVPTREANGHRLGCQAAFPNTTLQFEGYASLDVKYPPVIVEMNSSVEAIEGSHVSLLCGADSNPPPLLTWMRDGMVLREAVAKSLYLDLEEVTPGEDGVYACLAENAYGQDNRTVELSVMYAPWKPTVNGTVVAVEGETVSILCSTQSNPDPILTIFKEKQILATVIYESQLQLELPAVTPEDDGEYWCVAENQYGQRATAFNLSVEFAPIILLESHCAAARDTVQCLCVVKSNPEPSVAFELPSRNVTVNETEREFVYSERSGLLLTSILTIRGQAQAPPRVICTSRNLYGTQSLELPFQGAHR
modifications: N-linked glycans (made in GnTI- cells); C-mannosylation on W22
notes: Myelin-associated glycoprotein (MAG), mouse, Ig domains 1-5, residues 20-508 (UniProt numbering, starts after the signal peptide); template mouse S-MAG cDNA; Vector pUPE107.03 with a cystatin secretion signal peptide and a C-terminal His6-tag; also called wt MAG1–5; MAG full ectodomain; source: HEK293 GnTI- EBNA1 cells in suspension, transient, secreted; purified (Ni-NTA, SEC)
By Kd is commonly meant the concentration at which binding is half-saturated. In general, stoichiometry N refers to a count of units in the complex or per binding partner. As to B1, the “fraction of dimer (OLIGOMER fit, monomer:dimer ratio at 52 μM)” value in data set [1] came to 0.28 fraction. Further, in data set [2], the dissociation constant Kd stood at 382 µM and the “stoichiometry N” value was determined as 2.

B2: MAG1–5 N406Q glycosylated (domain or fragment, mouse, UniProt P20917 20-508, looked up)
chain: B1 chain with N387Q
modifications: N-linked glycans (made in GnTI- cells), lacks the N-linked glycan on residue 406
notes: Myelin-associated glycoprotein (MAG), mouse, Ig domains 1-5, residues 20-508 (UniProt numbering), with N406Q; also called N406Q mutant; source: HEK293 GnTI- EBNA1 cells in suspension, transient, secreted; purified (Ni-NTA, SEC)
For the protein B2, the binding result in data set [3] is on record as “binds”.

B3: MAG1–5 N406Q deglycosylated (domain or fragment, mouse, UniProt P20917 20-508, looked up)
chain: B1 chain with N387Q
modifications: N-linked glycans trimmed down to single N-Acetylglucosamines by Endo-Hf
notes: Myelin-associated glycoprotein (MAG), mouse, Ig domains 1-5, residues 20-508 (UniProt numbering), with N406Q; also called deglycosylated MAG1–5 N406Q; source: HEK293 GnTI- EBNA1 cells in suspension, transient, secreted; purified (Ni-NTA, SEC); deglycosylated with Endo-Hf
Regarding B3, the binding result in data set [1] was “binds”.

B4: MAG1–5 wt deglycosylated (domain or fragment, mouse, UniProt P20917 20-508, looked up)
chain: B1 chain
modifications: N-linked glycans trimmed down to single N-Acetylglucosamines by Endo-Hf; C-mannosylation on W22
notes: Myelin-associated glycoprotein (MAG), mouse, Ig domains 1-5, residues 20-508 (UniProt numbering, starts after the signal peptide); template mouse S-MAG cDNA; Same construct as m1 after Endo-Hf treatment; also called deglycosylated MAG1–5; deglycosylated wt MAG1–5; source: HEK293 GnTI- EBNA1 cells in suspension, transient, secreted; purified (Ni-NTA, SEC); deglycosylated with Endo-Hf overnight at …
Regarding B4, in data set [2], binding was put at a Kd of 167 µM and the “stoichiometry N” value turned out to be 2.

B5: Myelin-associated glycoprotein (MAG, Siglec4a): N406Q (protein)
parent chain: MIFLATLPLFWIMISASRGGHWGAWMPSTISAFEGTCVSIPCRFDFPDELRPAVVHGVWYFNSPYPKNYPPVVFKSRTQVVHESFQGRSRLLGDLGLRNCTLLLSTLSPELGGKYYFRGDLGGYNQYTFSEHSVLDIVNTPNIVVPPEVVAGTEVEVSCMVPDNCPELRPELSWLGHEGLGEPTVLGRLREDEGTWVQVSLLHFVPTREANGHRLGCQAAFPNTTLQFEGYASLDVKYPPVIVEMNSSVEAIEGSHVSLLCGADSNPPPLLTWMRDGMVLREAVAKSLYLDLEEVTPGEDGVYACLAENAYGQDNRTVELSVMYAPWKPTVNGTVVAVEGETVSILCSTQSNPDPILTIFKEKQILATVIYESQLQLELPAVTPEDDGEYWCVAENQYGQRATAFNLSVEFAPIILLESHCAAARDTVQCLCVVKSNPEPSVAFELPSRNVTVNETEREFVYSERSGLLLTSILTIRGQAQAPPRVICTSRNLYGTQSLELPFQGAHRLMWAKIGPVGAVVAFAILIAIVCYITQTRRKKNVTESSSFSGGDNPHVLYSPEFRISGAPDKYESEKQRLGSERRLLGLRGESPELDLSYSHSDLGKRPTKDSYTLTEELAEYAEIRVK
As for B5, the “oligomerisation, other: Rg” value in the data set “SAXS” is listed as “increases, 7.3 vs 6.8”. For the same protein, the oligomerisation entry in data set [4] was “increases”.

B6: Myelin-associated glycoprotein (MAG, Siglec4a): Endo-Hf (protein)
parent chain: B5 parent chain
B6: in the data set “SAXS”, the “oligomerisation, other: Rg” value is given as “increases, 7.3 vs 6.8”. Also, in data set [5], the “oligomerisation, KD” value is listed as “increases, 167 vs 382”.
